The results in this text go back to patent US20100196390A1 (RINAT NEUROSCIENCE, published 2010).

The experiment deals with TrkB (Homo sapiens (Human), UniProt Q16620 32-430). The experiment can be described thus: koff of Fab at 25 C; T1/2=Log2/koff. Summed up: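 Monovalent Fab fragments were tested at 25° C by surface plasmon resonance on a Biacore instrument, against TrkB extracellular-domain monomer amine-coupled to the chip at low capacity. Fabs were injected low to high as a 3-fold serial dilution from 100 nM for 84 sec, with a 10 minute dissociation after the top sample. The dissociation half-life was calculated from koff, which was fitted to a Langmuir binding model in BIAevaluation. The formula used was T1/2 = Log 2/koff.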
Sequence of TrkB (Q16620 32-430 limits assumed): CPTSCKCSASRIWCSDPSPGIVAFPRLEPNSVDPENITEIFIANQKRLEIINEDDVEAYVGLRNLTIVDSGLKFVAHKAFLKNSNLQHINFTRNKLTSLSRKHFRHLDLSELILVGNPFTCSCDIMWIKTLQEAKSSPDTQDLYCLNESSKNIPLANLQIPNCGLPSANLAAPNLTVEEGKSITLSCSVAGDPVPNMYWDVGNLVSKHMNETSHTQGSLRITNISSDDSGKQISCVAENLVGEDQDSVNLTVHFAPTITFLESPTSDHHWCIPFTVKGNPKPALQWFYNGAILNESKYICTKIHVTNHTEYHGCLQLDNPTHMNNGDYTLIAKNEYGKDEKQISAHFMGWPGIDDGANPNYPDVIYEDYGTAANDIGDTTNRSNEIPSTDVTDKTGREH

B1: 16-B2 (Fab, V domains shown)
VH: QVQLVQSGAEVKKPGASVKVSCKASGYTFTNYDIIWVRQAPGQGLEWMGYINPYNDGTKYNEKFKGRVTMTRDTSTSTVYMELSSLRSEDTAVYYCARLLKYRRFRYYAIDYWGQGTTVTVSS
VL: DIQMTQSPSSLSASVGDRVTITCRASENVYSNLAWYQQKPGKAPKLLIYAASNLQSGVPSRFSGSGSGTDFTFTISSLQPEDIATYYCQHFWGSPFTFGQGTKLEIK
notes: Fab
B1 showed a T1/2 of 300 s.

B2: 1-A11 (Fab, V domains shown)
VH: QVQLVQSGAEVKKPGASVKVSCKASGYTFTNYVILWVRQAPGQGLEWMGYINPYNDGTKYNEKFKGRVTMTRDTSTSTVYMELSSLRSEDTAVYYCARLLKYRRFSYYAIDYWGQGTTVTVSS
VL: DIQMTQSPSSLSASVGDRVTITCRASENVYSNLAWYQQKPGKAPKLLIYAASNLQSGVPSRFSGSGSGTDFTFTISSLQPEDIATYYCQHFWYSPFTFGQGTKLEIK
notes: Fab
Regarding B2, the T1/2 came to 64.8 s.

B3: 1-E9 (Fab, V domains shown)
VH: QVQLVQSGAEVKKPGASVKVSCKASGYTFTNYVILWVRQAPGQGLEWMGYINPYNDGTKYNEKFKGRVTMTRDTSTSTVYMELSSLRSEDTAVYYCARLLKYRRMSYYAIDYWGQGTTVTVSS
VL: DIQMTQSPSSLSASVGDRVTITCRASENVYSNLAWYQQKPGKAPKLLIYAASNLQSGVPSRFSGSGSGTDFTFTISSLQPEDIATYYCQHFWYSPFTFGQGTKLEIK
notes: Fab
For B3, the T1/2 was 62.4 s.

B4: 2-F6 (Fab, V domains shown)
VH: QVQLVQSGAEVKKPGASVKVSCKASGYTFTNYVILWVRQAPGQGLEWMGYINPYNDGTKYNEKFKGRVTMTRDTSTSTVYMELSSLRSEDTAVYYCARLLKYRRFRYYAIDYWGQGTTVTVSS
VL: DIQMTQSPSSLSASVGDRVTITCRASENVYSNLAWYQQKPGKAPKLLIYAASNLQSGVPSRFSGSGSGTDFTFTISSLQPEDIATYYCQHFWYSPFTFGQGTKLEIK
notes: Fab
Consider B4, for which the T1/2 was determined as 13.8 s.

B5: 3-F11 (Fab, V domains shown)
VH: QVQLVQSGAEVKKPGASVKVSCKASGYTFTNYVILWVRQAPGQGLEWMGYINPYNDGTKYNEKFKGRVTMTRDTSTSTVYMELSSLRSEDTAVYYCARLLKYRRFRYYAIDYWGQGTTVTVSS
VL: DIQMTQSPSSLSASVGDRVTITCRASENVYSNLAWYQQKPGKAPKLLIYAASNLQSGVPSRFSGSGSGTDFTFTISSLQPEDIATYYCQHFWYSPFTFGQGTKLEIK
notes: Fab
The molecule B5 returned a T1/2 of 69.6 s.

B6: 3-F2 (Fab, V domains shown)
VH: QVQLVQSGAEVKKPGASVKVSCKASGYTFTNYVILWVRQAPGQGLEWMGYINPYNDGTKYNEKFKGRVTMTRDTSTSTVYMELSSLRSEDTAVYYCARLLKYRRFSYYAIDYWGQGTTVTVSS
VL: DIQMTQSPSSLSASVGDRVTITCRASENVYSNLAWYQQKPGKAPKLLIYAASNLQSGVPSRFSGSGSGTDFTFTISSLQPEDIATYYCQHFWYSPFIFGQGTKLEIK
notes: Fab
Molecule B6 returned a T1/2 of 82.8 s.

B7: 1-B10 (Fab, V domains shown)
VH: QVQLVQSGAEVKKPGASVKVSCKASGYTFTNYVILWVRQAPGQGLEWMGYINPYNDGTKYNEKFKGRVTMTRDTSTSTVYMELSSLRSEDTAVYYCARLLKYRRFSFYAIDYWGQGTTVTVSS
VL: DIQMTQSPSSLSASVGDRVTITCRASENVYSNLAWYQQKPGKAPKLLIYAASNLQSGVPSRFSGSGSGTDFTFTISSLQPEDIATYYCQGFWYSPFTFGQGTKLEIK
notes: Fab
Molecule B7 gave a T1/2 of 33 s.

B8: 2-B1 (Fab, V domains shown)
VH: QVQLVQSGAEVKKPGASVKVSCKASGYTFTNYVILWVRQAPGQGLEWMGYINPYNDGTKYNEKFKGRVTMTRDTSTSTVYMELSSLRSEDTAVYYCARLLKYRRFSYYAIDYWGQGTTVTVSS
VL: DIQMTQSPSSLSASVGDRVTITCRASENVYSNLAWYQQKPGKAPKLLIYAASNLQSGVPSRFSGSGSGTDFTFTISSLQPEDIATYYCQNFWYSPFTFGQGTKLEIK
notes: Fab
B8 returned a T1/2 of 19.2 s.

B9: 2-F10 (Fab, V domains shown)
VH: QVQLVQSGAEVKKPGASVKVSCKASGYTFTNYVILWVRQAPGQGLEWMGYINPYNDGTKYNEKFKGRVTMTRDTSTSTVYMELSSLRSEDTAVYYCARLLKYRRFSYYAIDYWGQGTTVTVSS
VL: DIQMTQSPSSLSASVGDRVTITCRASENVYSNLAWYQQKPGKAPKLLIYAASNLQSGVPSRFSGSGSGTDFTFTISSLQPEDIATYYCQVFWYSPFTFGQGTKLEIK
notes: Fab
B9 registered a T1/2 of 28.8 s.

B10: 1-D3 (Fab, V domains shown)
VH: QVQLVQSGAEVKKPGASVKVSCKASGYTFTNYVILWVRQAPGQGLEWMGYINPYNDGTKYNEKFKGRVTMTRDTSTSTVYMELSSLRSEDTAVYYCARLLKYRRFSYYAIDEWGQGTTVTVSS
VL: DIQMTQSPSSLSASVGDRVTITCRASENVYSNLAWYQQKPGKAPKLLIYAASNLQSGVPSRFSGSGSGTDFTFTISSLQPEDIATYYCQHFWYSPFTFGQGTKLEIK
notes: Fab
Regarding B10, the T1/2 was 55.2 s.

B11: 1-A6 (Fab, V domains shown)
VH: QVQLVQSGAEVKKPGASVKVSCKASGYTFTNYVILWVRQAPGQGLEWMGYINPYNDGTKYNEKFKGRVTMTRDTSTSTVYMELSSLRSEDTAVYYCARLLKYRRHSYYAIDYWGQGTTVTVSS
VL: DIQMTQSPSSLSASVGDRVTITCRASENVYSNLAWYQQKPGKAPKLLIYAASNLQSGVPSRFSGSGSGTDFTFTISSLQPEDIATYYCQHFWKSPFTFGQGTKLEIK
notes: Fab
With B11, the T1/2 amounted to 25.2 s.

B12: 1-B11 (Fab, V domains shown)
VH: QVQLVQSGAEVKKPGASVKVSCKASGYTFTNYVILWVRQAPGQGLEWMGYINPYNDGTKYNEKFKGRVTMTRDTSTSTVYMELSSLRSEDTAVYYCARLLKYRRFSYYAIDYWGQGTTVTVSS
VL: DIQMTQSPSSLSASVGDRVTITCRASENVYSNLAWYQQKPGKAPKLLIYAASNLQSGVPSRFSGSGSGTDFTFTISSLQPEDIATYYCQNFWYSPFTFGQGTKLEIK
notes: Fab
B12 registered a T1/2 of 43.2 s.

B13: 1-G12 (Fab, V domains shown)
VH: QVQLVQSGAEVKKPGASVKVSCKASGYTFTNYVILWVRQAPGQGLEWMGYINPYNDGTKYNEKFKGRVTMTRDTSTSTVYMELSSLRSEDTAVYYCARLLKYRRFSYYAIDYWGQGTTVTVSS
VL: DIQMTQSPSSLSASVGDRVTITCRASENVYSNLAWYQQKPGKAPKLLIYAASNLQSGVPSRFSGSGSGTDFTFTISSLQPEDIATYYCQHFWYSPFGFGQGTKLEIK
notes: Fab
Regarding B13, the T1/2 turned out to be 24 s.

B14: 3-B11 (Fab, V domains shown)
VH: QVQLVQSGAEVKKPGASVKVSCKASGYTFTNYVILWVRQAPGQGLEWMGYINPYNDGTKYNEKFKGRVTMTRDTSTSTVYMELSSLRSEDTAVYYCARLLKYRRFRYYAIDYWGQGTTVTVSS
VL: DIQMTQSPSSLSASVGDRVTITCRASENVYSNLAWYQQKPGKAPKLLIYAASNLQSGVPSRFSGSGSGTDFTFTISSLQPEDIATYYCQHFWYSGFTFGQGTKLEIK
notes: Fab
B14 returned a T1/2 of 52.2 s.

B15: 3-F10 (Fab, V domains shown)
VH: QVQLVQSGAEVKKPGASVKVSCKASGYTFTNYVILWVRQAPGQGLEWMGYINPYNDGTKYNEKFKGRVTMTRDTSTSTVYMELSSLRSEDTAVYYCARLLKYRRFSYYAIDYWGQGTTVTVSS
VL: DIQMTQSPSSLSASVGDRVTITCRASENVYSNLAWYQQKPGKAPKLLIYAASNLQSGVPSRFSGSGSGTDFTFTISSLQPEDIATYYCQHFWYSPFKFGQGTKLEIK
notes: Fab
B15 had a T1/2 of 47.4 s.

B16: 3-C12 (Fab, V domains shown)
VH: QVQLVQSGAEVKKPGASVKVSCKASGYTFTNYVILWVRQAPGQGLEWMGYINPYNDGTKYNEKFKGRVTMTRDTSTSTVYMELSSLRSEDTAVYYCARLLKYRRFSYYAIDYWGQGTTVTVSS
VL: DIQMTQSPSSLSASVGDRVTITCRASENVYSNLAWYQQKPGKAPKLLIYAASNLQSGVPSRFSGSGSGTDFTFTISSLQPEDIATYYCQHFWGSPFTFGQGTKLEIK
notes: Fab
Regarding B16, the T1/2 amounted to 50.4 s.

B17: 2-A2 (Fab, V domains shown)
VH: QVQLVQSGAEVKKPGASVKVSCKASGYTFTNYVILWVRQAPGQGLEWMGYINPYNDGTKYNEKFKGRVTMTRDTSTSTVYMELSSLRSEDTAVYYCARLLKYRRLSYYAIDYWGQGTTVTVSS
VL: DIQMTQSPSSLSASVGDRVTITCRASENVYSNLAWYQQKPGKAPKLLIYAASNLQSGVPSRFSGSGSGTDFTFTISSLQPEDIATYYCQHFWYSPFTFGQGTKLEIK
notes: Fab
With B17, the T1/2 was 34.2 s.

B18: 2-G12 (Fab, V domains shown)
VH: QVQLVQSGAEVKKPGASVKVSCKASGYTFTNYVILWVRQAPGQGLEWMGYINPYNDGTKYNEKFKGRVTMTRDTSTSTVYMELSSLRSEDTAVYYCARLLKYRRFRYYAIDYWGQGTTVTVSS
VL: DIQMTQSPSSLSASVGDRVTITCRASENVYSNLAWYQQKPGKAPKLLIYAASNLQSGVPSRFSGSGSGTDFTFTISSLQPEDIATYYCQHFWYRPFTFGQGTKLEIK
notes: Fab
For the molecule B18, the T1/2 amounted to 18 s.

B19: 3-F7 (Fab, V domains shown)
VH: QVQLVQSGAEVKKPGASVKVSCKASGYTFTNYVILWVRQAPGQGLEWMGYINPYNDGTKYNEKFKGRVTMTRDTSTSTVYMELSSLRSEDTAVYYCARLLKYRRFRYYAIDYWGQGTTVTVSS
VL: DIQMTQSPSSLSASVGDRVTITCRASENVYSNLAWYQQKPGKAPKLLIYAASNLQSGVPSRFSGSGSGTDFTFTISSLQPEDIATYYCQHFWKSPFTFGQGTKLEIK
notes: Fab
The molecule B19 displayed a T1/2 of 60.6 s.

B20: 1-H6 (Fab, V domains shown)
VH: QVQLVQSGAEVKKPGASVKVSCKASGYTFTNYVILWVRQAPGQGLEWMGYINPYNDGTKYNEKFKGRVTMTRDTSTSTVYMELSSLRSEDTAVYYCARLLKYRRFSYYAIDYWGQGTTVTVSS
VL: DIQMTQSPSSLSASVGDRVTITCRASENVYSNLAWYQQKPGKAPKLLIYAASNLQSGVPSRFSGSGSGTDFTFTISSLQPEDIATYYCQHFWWSPFTFGQGTKLEIK
notes: Fab
In the case of B20, the T1/2 stood at 37.2 s.

B21: 3-G5 (Fab, V domains shown)
VH: QVQLVQSGAEVKKPGASVKVSCKASGYTFTNYVILWVRQAPGQGLEWMGYINPYNDGTKYNEKFKGRVTMTRDTSTSTVYMELSSLRSEDTAVYYCARLLKYRRFSYYAIDYWGQGTTVTVSS
VL: DIQMTQSPSSLSASVGDRVTITCRASENVYSNLAWYQQKPGKAPKLLIYAASNLQSGVPSRFSGSGSGTDFTFTISSLQPEDIATYYCQNFWYSPFTFGQGTKLEIK
notes: Fab
As for B21, the T1/2 was 72.6 s.
